The values that follow come from patent US20230256057A1.

The assay addresses IL-7 receptor (human) (UniProt P16871). Nature of the assay: cell-based or functional assay.
UniProt P16871, sequence (P16871 21-459, chain 1 of 2): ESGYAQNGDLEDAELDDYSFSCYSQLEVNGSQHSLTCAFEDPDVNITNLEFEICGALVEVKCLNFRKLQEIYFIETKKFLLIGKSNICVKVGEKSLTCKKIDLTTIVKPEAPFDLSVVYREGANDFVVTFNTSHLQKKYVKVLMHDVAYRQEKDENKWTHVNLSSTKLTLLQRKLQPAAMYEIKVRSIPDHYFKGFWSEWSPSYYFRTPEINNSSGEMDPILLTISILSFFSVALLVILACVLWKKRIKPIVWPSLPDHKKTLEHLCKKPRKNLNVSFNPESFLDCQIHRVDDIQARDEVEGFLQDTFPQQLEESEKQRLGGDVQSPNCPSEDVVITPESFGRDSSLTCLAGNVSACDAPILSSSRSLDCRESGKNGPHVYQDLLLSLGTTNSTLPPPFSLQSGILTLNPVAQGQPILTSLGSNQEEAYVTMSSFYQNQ
UniProt P16871, sequence (P31785 23-369, chain 2 of 2, further chain): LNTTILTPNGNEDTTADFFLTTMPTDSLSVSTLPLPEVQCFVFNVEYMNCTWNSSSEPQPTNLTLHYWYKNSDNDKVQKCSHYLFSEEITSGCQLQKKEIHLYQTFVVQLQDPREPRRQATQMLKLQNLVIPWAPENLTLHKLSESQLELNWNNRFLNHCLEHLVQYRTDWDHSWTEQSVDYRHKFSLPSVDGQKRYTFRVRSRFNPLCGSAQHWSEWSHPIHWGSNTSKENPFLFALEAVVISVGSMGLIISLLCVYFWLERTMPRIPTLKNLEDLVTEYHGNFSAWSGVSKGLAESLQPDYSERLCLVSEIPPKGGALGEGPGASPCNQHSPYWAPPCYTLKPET

As to “human interleukin-7 fused to human Fc sequence of IgG2 (hIL-7-Fc) (Fc fusion)”, the pSTAT5 expression in CD3+ T cells of COVID19+ patients' whole blood, ratio to unstimulated condition; supernatant dilution 1/2.5 was determined as 6.5 fold; the pSTAT5 expression in CD3+ T cells of COVID19+ patients' whole blood, ratio to unstimulated condition; supernatant dilution 1/5 stood at 5.7 fold; the pSTAT5 expression in CD3+ T cells of COVID19+ patients' whole blood, ratio to unstimulated condition; supernatant dilution 1/10 was 4.9 fold.
